B1: Pistol ribozyme (parent)
chain: GGGUCGUUGUUCCAUAAUCGCGUGGAUAUGGCACGCAAGUUUCUACCGGGCACCGUAAAUGUCCGACUGGAGCCGUUCGGGCGGCUAUAAACAGACCUCAGGCCCGAAGCGUGGCGGCACCUGCCGCCGGUGGUAAAAAAGAUCGGAAGAGCACACGUCU

Variants of: B1
Test: aptazyme ON/OFF ratio, guanine; higher = stronger switching; co-transcriptional cleavage with and without guanine

Variant	aptazyme ON/OFF ratio
U8C G9C C12A	1.16
U8C G9C C12U	1.08
U8C G9C C12G	1.19
U8C G9A U11G C12U C13G	1.29
U8C G9A U11G C12U C13A	1.34
U8C G9A U11G C12U C13U	1.22
U8C G9A U11A C12G C13G	1.2
U8C G9A U11A C12G C13U	1.23
U8C G9A U11A C12G C13A	1.14
U8C G9A U10G U11A C12A C13U	1.15
U8C G9A U10G U11A C12A C13G	1.12
U8C G9A U10G U11A C12A C13A	1.14
U8C G9C U10G C12G C13U	1.09
U8C G9C U10G C12G C13A	1.08
U8C G9C U10G C12G C13G	1.09
U8C G9C U10A U11C C13U	1.14
U8C G9C U10A U11C C13G	1.2
U8C G9C U10A U11C C13A	1.23
U8C G9C U10C U11C C12G	1.08
U8C G9C U10C U11C C12A	1.02
U8C G9C U10C U11C C12U	0.966

Variant	aptazyme ON/OFF ratio
U8C G9A U10G U11G C12U C13U	1.22
U8C G9A U10G U11G C12U C13A	1.09
U8C G9A U10G U11G C12U C13G	1.1
U8C G9C U10C U11C C13U	0.96
U8C G9C U10C U11C C13A	1.01
U8C G9C U10C U11C C13G	1.04
U8C G9A U10G U11C C13A	1.11
U8C G9A U10G U11C C13U	1.06
U8C G9A U10G U11C C13G	1.07
U8C G9C U10C C13U	1.12
U8C G9C U10C C13G	1.05
U8C G9C U10C C13A	1.01
U8C G9C U11A C12G C13A	1.17
U8C G9C U11A C12G C13G	1.15
U8C G9C U11A C12G C13U	1.07
U8C G9C U10C C12U	1.07
U8C G9C U10C C12A	1.06
U8C G9C U10C C12G	1.06
U8C G9C U10G U11C C12A	1.22
U8C G9C U10G U11C C12U	1.05
U8C G9C U10G U11C C12G	1.21

Variant	aptazyme ON/OFF ratio
U8C G9C U10C U11G C12G C13G	1.09
U8C G9C U10C U11G C12G C13U	1.08
U8C G9C U10C U11G C12G C13A	1.13
U8C G9C U11A	1.18
U8C G9A U10G U11C	1.05
U8C G9A U10G U11A	1.02
U8C G9A U10G U11G	1.06
U8C G9C U10G U11G C12G	1.13
U8C G9C U10G U11G C12U	1.09
U8C G9C U10G U11G C12A	1.15
U8C G9A U10G C12G C13A	1.14
U8C G9A U10G C12G C13U	1.22
U8C G9A U10G C12G C13G	1.11
U8C G9A U10G C12U C13U	1.54
U8C G9A U10G C12U C13A	1.19
U8C G9A U10G C12U C13G	1.2
U8C G9C U10A U11A C12A C13U	1.08
U8C G9C U10A U11A C12A C13A	1.07
U8C G9C U10A U11A C12A C13G	1.11
U8C G9A U11G C13G	1.27
U8C G9A U11G C13U	1.15

Variant	aptazyme ON/OFF ratio
U8C G9A U11G C13A	1.23
U8C G9C U11A C12G	1.18
U8C G9C U11A C12A	1.22
U8C G9C U11A C12U	1.08
U8C G9C U10G U11G C12A C13G	1.11
U8C G9C U10G U11G C12A C13U	1.08
U8C G9C U10G U11G C12A C13A	1.08
U8C G9C U10G U11A C12G C13A	1.08
U8C G9C U10G U11A C12G C13U	1.11
U8C G9C U10G U11A C12G C13G	1.13
U8C G9C U10A U11A C12U C13U	1.08
U8C G9C U10A U11A C12U C13G	1.1
U8C G9C U10A U11A C12U C13A	1.09
U8C G9C U10A C13A	1.08
U8C G9C U10A C13U	1.07
U8C G9C U10A C13G	1.16
U8C G9A U10G U11G C12A C13A	1.15
U8C G9A U10G U11G C12A C13U	1.2
U8C G9A U10G U11G C12A C13G	1.14
U8C G9A U11C C12G C13G	1.26
